By stoichiometry N is commonly meant a count of units in the complex or per binding partner.

Sequences and labels used below:
B1: Streptomyces coelicolor FtsZ, C-terminal His-tag fusion (natural protein, UniProt P45500 1-399, looked up)
chain: MAAPQNYLAVIKVIGVGGGGVNAINRMIEVGLKGVEFIAINTDAQALLMSDADVKLDVGRELTRGLGAGANPAVGRKAAEDHREEIEEVLKGADMVFVTAGEGGGTGTGGAPVVANIARSLGALTIGVVTRPFTFEGRRRANQAEDGIAELREEVDTLIVIPNDRLLSISDRQVSVLDAFKSADQVLLSGVQGITDLITTPGLINLDFADVKSVMSEAGSALMGIGSARGDDRAVAAAEMAISSPLLEASIDGARGVLLSISGGSDLGLFEINEAAQLVSEAAHPEANIIFGAVIDDALGDEVRVTVIAAGFDGGQPPSKRDNVLGSSSAKREEPTPARPSESRPSFGSLGSVKPKEEPEPAPVPEPVADLPVSPPPVPPSRTYSDSAAEELDVPDFLK
notes: FtsZ of Streptomyces coelicolor, codon-optimised ftsZ cloned into pET28a; Forms polymers with GTP; source: E. coli Rosetta 2 (DE3) pLysS, purified

Data set [1] deals with the molecule itself. The data set is described as follows: co-sedimentation; co-pelleting assay: purified FtsZ with or without equimolar SsgB or its mutants, 15 µM final; pre-spun 50 k r.p.m. 30 min; 2 mM MgCl2 and GTP added, 10 min at 30°C; centrifuged 65 k r.p.m. at 20°C for 30 min; supernatants and pellets on SDS-PAGE.
In data set [2] the target is B1. The description is as above. As to conditions: both partners purified.
Data set [3] addresses Streptomyces coelicolor SsgB, wild type, His6-tagged (Streptomyces coelicolor) (UniProt Q9L268). In words: crystal structure; tetragonal crystals, sitting-drop vapour diffusion at 18°C; 0.2 M sodium chloride, 0.1 M sodium/potassium phosphate pH 6.2, 50% PEG200; 2.1 Å; eight molecules per asymmetric unit.

With B1, in data set [1], the binding result is listed as “binds”.

B2: Streptomyces coelicolor SsgB, wild type, His6-tagged (natural protein, UniProt Q9L268 1-137, looked up)
chain: MNTTVSCELHLRLVVSSESSLPVPAGLRYDTADPYAVHATFHTGAEETVEWVFARDLLAEGLHRPTGTGDVRVWPSRSHGQGVVCIALSSPEGEALLEAPARALESFLKRTDAAVPPGTEHRHFDLDQELSHILAES
notes: SsgB of Streptomyces coelicolor, entire coding region, 137 aa native polypeptide; expressed from pET28a as a 157 aa fusion protein; Trimer in the crystal, mainly monomer by SEC; The last 13 residues are not modelled in the structure; also called ScSsgB; wild-type SsgB; source: E. coli Rosetta 2 (DE3) pLysS, purified
In the case of B2, in data set [2], the binding result was “binds”. In data set [3], the stoichiometry N was found to be 3.

B3: SsgB-E120G, His6-tagged (natural protein, Streptomyces coelicolor, UniProt Q9L268 1-137, looked up)
chain: MNTTVSCELHLRLVVSSESSLPVPAGLRYDTADPYAVHATFHTGAEETVEWVFARDLLAEGLHRPTGTGDVRVWPSRSHGQGVVCIALSSPEGEALLEAPARALESFLKRTDAAVPPGTGHRHFDLDQELSHILAES
notes: SsgB of Streptomyces coelicolor, entire coding region (137 aa), point mutant E120G, expressed in the same way as wild type; also called SsgB variant E120G; source: E. coli Rosetta 2 (DE3) pLysS, purified
Turning to B3, the binding result in data set [2] is “binds”.

B4: SsgB E120A, His6-tagged (natural protein, Streptomyces coelicolor, UniProt Q9L268 1-137, looked up)
chain: MNTTVSCELHLRLVVSSESSLPVPAGLRYDTADPYAVHATFHTGAEETVEWVFARDLLAEGLHRPTGTGDVRVWPSRSHGQGVVCIALSSPEGEALLEAPARALESFLKRTDAAVPPGTAHRHFDLDQELSHILAES
notes: SsgB of Streptomyces coelicolor, entire coding region (137 aa), point mutant E120A, expressed in the same way as wild type; also called SsgB variant E120A; source: E. coli Rosetta 2 (DE3) pLysS, purified
As to B4, the binding result in data set [2] is recorded as “binds”.

The values above are taken from PMC8061694, “Ectopic positioning of the cell division plane is associated with single amino acid substitutions in the FtsZ-recruiting SsgB in Streptomyces” (Open Biology, 2021).
